T1: HSV UL42 (processivity factor of HSV DNA polymerase) (herpes simplex virus (HSV), UniProt P10226 1-488)
T1 sequence: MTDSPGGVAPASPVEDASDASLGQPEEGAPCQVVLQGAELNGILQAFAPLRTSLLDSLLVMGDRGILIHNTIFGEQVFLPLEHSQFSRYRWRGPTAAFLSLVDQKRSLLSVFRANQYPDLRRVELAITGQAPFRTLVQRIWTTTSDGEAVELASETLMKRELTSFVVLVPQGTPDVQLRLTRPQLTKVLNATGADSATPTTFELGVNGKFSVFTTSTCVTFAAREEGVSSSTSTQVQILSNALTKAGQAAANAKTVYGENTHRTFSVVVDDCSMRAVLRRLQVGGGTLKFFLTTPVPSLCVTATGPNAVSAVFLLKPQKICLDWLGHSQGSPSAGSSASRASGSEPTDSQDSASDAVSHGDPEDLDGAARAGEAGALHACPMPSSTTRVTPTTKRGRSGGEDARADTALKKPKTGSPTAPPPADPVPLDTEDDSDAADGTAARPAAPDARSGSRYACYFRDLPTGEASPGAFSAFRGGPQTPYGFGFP


Key:
[1] = target: T1, HSV UL42 (processivity factor of HSV …); experiment: cell-based or functional assay
[2] = target: T1, HSV UL42 (processivity factor of HSV …); experiment: cell-based or functional assay; remark: listed apart in the source

Row | Binder | IC50, inhibition of long chain DNA synthesis [1] | inhibition of long-chain DNA synthesis at 100 µM [2] | IC50 relative to that of peptide E [2]
1 | DDVAARLRAAGFGAVGAGATAEETRRMLHRAFDTLA [Peptide A (C-terminal 36 amino acid residues of HSV DNA polymerase, Pol residues 1200-1235)] | 1.7 µM |  | 
2 | ATAEETRRMAHRAFDTLA [peptide E mutant L28A] | 18 µM |  | 
3 | ATAEETRRMLARAFDTLA [peptide E mutant H29A] | > 100 µM | < 20 % inhibition at 100 µM | 
4 | ATAEETRRMLHAAFDTLA [peptide E mutant R30A] | > 100 µM | < 20 % inhibition at 100 µM | 
5 | ATAEETRRMLHRAADTLA [peptide E mutant F32A] | > 100 µM | < 20 % inhibition at 100 µM | 
6 | ATAEETRRMLHRAFATLA [peptide E mutant D33A] | 50 µM |  | 
7 | ATAEETRRMLHRAFDALA [peptide E mutant T34A] | 10 µM |  | 
8 | ATAEETRRMLHRAFDTAA [peptide E mutant L35A] | 97 µM | 50 % inhibition at 100 µM | 
9 | ATAEETRRALHRAFDTLA [peptide E mutant M27A] | > 100 µM | 40 % inhibition at 100 µM | 
10 | AAAEETRRMLHRAFDTLA [peptide E mutant T20A] | > 100 µM | < 20 % inhibition at 100 µM | 
11 | ATAEETRRMLHRAFDTLA [Peptide E (last 18 residues of HSV DNA polymerase, Pol residues 1218-1235)] | 11 µM |  | 
12 | ATAAETRRMLHRAFDTLA [peptide E mutant E22A] | > 100 µM | < 20 % inhibition at 100 µM | 
13 | ATAEETARMLHRAFDTLA [peptide E mutant R25A] | 40 µM |  | 3 to 7 fold
14 | ATAEEARRMLHRAFDTLA [peptide E mutant T24A] | 77 µM |  | 3 to 7 fold
15 | ATAEATRRMLHRAFDTLA [peptide E mutant E23A] | 21 µM |  | 
16 | ATAEETRAMLHRAFDTLA [peptide E mutant R26A] | 14 µM |  | 

— US20070055459A1 (Harvard, published 2007)
